Target: PTEN, purified from HEK293 cells (UniProt P60484 1-403)
Assay: enzyme inhibition kinetics

Sequence of PTEN, purified from HEK293 cells (P60484 whole entry): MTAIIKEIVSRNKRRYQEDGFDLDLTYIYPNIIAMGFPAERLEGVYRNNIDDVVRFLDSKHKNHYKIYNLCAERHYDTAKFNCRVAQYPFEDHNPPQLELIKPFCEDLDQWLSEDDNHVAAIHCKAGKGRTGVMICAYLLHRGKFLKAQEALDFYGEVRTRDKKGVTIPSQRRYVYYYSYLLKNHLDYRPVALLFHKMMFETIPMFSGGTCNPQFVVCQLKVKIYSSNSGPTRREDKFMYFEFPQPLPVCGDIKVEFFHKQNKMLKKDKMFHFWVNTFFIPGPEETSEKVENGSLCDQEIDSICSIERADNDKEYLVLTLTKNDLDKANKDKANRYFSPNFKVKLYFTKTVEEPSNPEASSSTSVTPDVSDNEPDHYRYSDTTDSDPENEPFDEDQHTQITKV

B1: Affinity purified full-length P-REX2a (natural protein, UniProt Q70Z35 1-1606, looked up)
chain: MSEDSRGDSRAESAKDLEKQLRLRVCVLSELQKTERDYVGTLEFLVSAFLHRMNQCAASKVDKNVTEETVKMLFSNIEDILAVHKEFLKVVEECLHPEPNAQQEVGTCFLHFKDKFRIYDEYCSNHEKAQKLLLELNKIRTIRTFLLNCMLLGGRKNTDVPLEGYLVTPIQRICKYPLILKELLKRTPRKHSDYAAVMEALQAMKAVCSNINEAKRQMEKLEVLEEWQSHIEGWEGSNITDTCTEMLMCGVLLKISSGNIQERVFFLFDNLLVYCKRKHRRLKNSKASTDGHRYLFRGRINTEVMEVENVDDGTADFHSSGHIVVNGWKIHNTAKNKWFVCMAKTPEEKHEWFEAILKERERRKGLKLGMEQDTWVMISEQGEKLYKMMCRQGNLIKDRKRKLTTFPKCFLGSEFVSWLLEIGEIHRPEEGVHLGQALLENGIIHHVTDKHQFKPEQMLYRFRYDDGTFYPRNEMQDVISKGVRLYCRLHSLFTPVIRDKDYHLRTYKSVVMANKLIDWLIAQGDCRTREEAMIFGVGLCDNGFMHHVLEKSEFKDEPLLFRFFSDEEMEGSNMKHRLMKHDLKVVENVIAKSLLIKSNEGSYGFGLEDKNKVPIIKLVEKGSNAEMAGMEVGKKIFAINGDLVFMRPFNEVDCFLKSCLNSRKPLRVLVSTKPRETVKIPDSADGLGFQIRGFGPSVVHAVGRGTVAAAAGLHPGQCIIKVNGINVSKETHASVIAHVTACRKYRRPTKQDSIQWVYNSIESAQEDLQKSHSKPPGDEAGDAFDCKVEEVIDKFNTMAIIDGKKEHVSLTVDNVHLEYGVVYEYDSTAGIKCNVVEKMIEPKGFFSLTAKILEALAKSDEHFVQNCTSLNSLNEVIPTDLQSKFSALCSERIEHLCQRISSYKKFSRVLKNRAWPTFKQAKSKISPLHSSDFCPTNCHVNVMEVSYPKTSTSLGSAFGVQLDSRKHNSHDKENKSSEQGKLSPMVYIQHTITTMAAPSGLSLGQQDGHGLRYLLKEEDLETQDIYQKLLGKLQTALKEVEMCVCQIDDLLSSITYSPKLERKTSEGIIPTDSDNEKGERNSKRVCFNVAGDEQEDSGHDTISNRDSYSDCNSNRNSIASFTSICSSQCSSYFHSDEMDSGDELPLSVRISHDKQDKIHSCLEHLFSQVDSITNLLKGQAVVRAFDQTKYLTPGRGLQEFQQEMEPKLSCPKRLRLHIKQDPWNLPSSVRTLAQNIRKFVEEVKCRLLLALLEYSDSETQLRRDMVFCQTLVATVCAFSEQLMAALNQMFDNSKENEMETWEASRRWLDQIANAGVLFHFQSLLSPNLTDEQAMLEDTLVALFDLEKVSFYFKPSEEEPLVANVPLTYQAEGSRQALKVYFYIDSYHFEQLPQRLKNGGGFKIHPVLFAQALESMEGYYYRDNVSVEEFQAQINAASLEKVKQYNQKLRAFYLDKSNSPPNSTSKAAYVDKLMRPLNALDELYRLVASFIRSKRTAACANTACSASGVGLLSVSSELCNRLGACHIIMCSSGVHRCTLSVTLEQAIILARSHGLPPRYIMQATDVMRKQGARVQNTAKNLGVRDRTPQSAPRLYKLCEPPPPAGEE
Ki: 19 nM

— article PMC2936784 (Science (New York, N.Y.), 2009)
